Experimental data from patent US20250327097A1, “ORGANISMS PRODUCING LESS CROTONIC ACID” (Global Bioenergies, priority 2021, published 2025).
Positions count from the first letter of the chain named. Numbers in names are those of the source.

B1: I283T-P284D-N287P-S322T-N388M-C430N-L432F-L434W-S436N-H461A-dG462-A463T (protein)
chain: MFLKSLREQINLLKRQGDLRIINRPVDSYLEAAAIIRRSTETKAPVPLMTNIKGYPGCSIVGGLAALSSNPEYPLSRVAMSLGLSTTASAQSIVQYLIDGLKKTPYLPVEIDSNSAPCKQNILRGEDASLAHFPIPQVHQHDGNRYVNTWGVFIVESPDGQWCNWSIQRVQYLNDRQMIALVFPSQHISDIWEEWVKIGKPMPYALVQGCEPIVPYIAGLPLLERNVNEAEYIGALYGKGIEVVKCETHDLRVPASSEVVIEGYFAITREGVEGPFGEFAGYTDNEPSLQPILSITAISWQDDPIWPVVAEGKPVDEYHTCTGIGDAAAIQNVLLTANLPVSFVWVPLYSACHLMIVSINRHWRQTHPDLTSEQLTKKVGDVIHQTRMSIKLPKIVVLDDDVDPADTESLLWALATRIHPERKRYFYESNIFPWLNCYSEEERHNRKGKRVIIDALLPENAGTISSFDYAYPDDIKQRVLMHWETDFSHD
B2: I283T-P284D-N287P-S322T-N388M-R422F-C430N-L432F-L434W-S436N-dG462 (protein)
chain: B1 chain with R422F, A461H, T463A
B3: I283T-P284D-N287P-S322T-N388M-R422F-C430N-L432F-L434W-S436N-H461V-dG462-A463T (protein)
chain: B1 chain with R422F, A461V
B4: I283T-P284D-N287P-S322T-N388M-E421V-C430N-L432F-L434W-S436N-dG462 (protein)
chain: B1 chain with E421V, A461H, T463A
B5: I283T-P284D-N287P-S322T-N388M-E421V-C430N-L432F-L434W-S436N-H461T-dG462 (protein)
chain: B1 chain with E421V, A461T, T463A
B6: I283T-P284D-N287P-S322T-N388M-C430N-L432F-L434W-S436N-H461T-dG462-A463T (protein)
chain: B1 chain with A461T
B7: I283T-P284D-N287P-S322T-N388M-E421V-R422F-C430N-L432F-L434W-S436N-dG462 (protein)
chain: B1 chain with E421V, R422F, A461H, T463A
B8: I283T-P284D-N287P-S322T-N388M-R422F-C430N-L432F-L434W-S436N-dG462-A463T (protein)
chain: B1 chain with R422F, A461H
B9: I283T-P284D-N287P-S322T-N388M-R422F-C430N-L432F-L434W-S436N-H461V-dG462 (protein)
chain: B1 chain with R422F, A461V, T463A
B10: I283T-P284D-N287P-S322T-N388M-E421V-C430N-L432F-L434W-S436N-H461V-dG462-A463T (protein)
chain: B1 chain with E421V, A461V
B11: I283T-P284D-N287P-S322T-N388M-C430N-L432F-L434W-S436N-H461V-dG462-S465V (protein)
chain: B1 chain with A461V, T463A, S465V
B12: I283T-P284D-N287P-S322T-N388M-E421V-R422F-C430N-L432F-L434W-S436N-H461T-dG462-A463T (protein)
chain: B1 chain with E421V, R422F, A461T
B13: I283T-P284D-N287P-S322T-N388M-E421V-R422F-C430N-L432F-L434W-S436N-H461T-dG462 (protein)
chain: B1 chain with E421V, R422F, A461T, T463A
B14: I283T-P284D-N287P-S322T-N388M-C430N-L432F-L434W-S436N-H461V-dG462-A463T (protein)
chain: B1 chain with A461V
B15: N388M-K394R-C430N-L432F-L434W-S436N-H444T (protein)
chain: B1 chain with T283I, D284P, P287N, T322S, K394R, H444T, A461H, T463A
B16: N388M-K394R-C430N-L432F-L434W-S436N-H444V (protein)
chain: B1 chain with T283I, D284P, P287N, T322S, K394R, H444V, A461H, T463A
B17: I283T-P284D-N287P-S322T-N388M-C430N-L432F-L434W-S436N-H461Y-dG462-S465V (protein)
chain: B1 chain with A461Y, T463A, S465V
B18: I283T-P284D-N287P-S322T-N388M-C430N-L432F-L434W-S436N-H461Y-dG462-A463T (protein)
chain: B1 chain with A461Y
B19: I283T-P284D-N287P-S322T-N388M-E421V-R422F-C430N-L432F-L434W-S436N-H461V-dG462-A463T (protein)
chain: B1 chain with E421V, R422F, A461V
B20: I283T-P284D-N287P-S322T-N388M-E421V-C430N-L432F-L434W-S436N-dG462-A463T (protein)
chain: B1 chain with E421V, A461H
B21: I283T-P284D-N287P-S322T-N388M-C430N-L432F-L434W-S436N-H461A-dG462-A463T-S465V (protein)
chain: B1 chain with S465V
B22: I283T-P284D-N287P-S322T-N388M-C430N-L432F-L434W-S436N-dG462-A463T-S465V (protein)
chain: B1 chain with A461H, S465V
B23: I283T-P284D-N287P-S322T-N388M-E421V-C430N-L432F-L434W-S436N-H461V-dG462 (protein)
chain: B1 chain with E421V, A461V, T463A
B24: I283T-P284D-N287P-S322T-N388M-C430N-L432F-L434W-S436N-H461A-dG462-S465V (protein)
chain: B1 chain with T463A, S465V
B25: I283T-P284D-N287P-S322T-N388M-R422F-C430N-L432F-L434W-S436N-H461T-dG462-A463T (protein)
chain: B1 chain with R422F, A461T
B26: I283T-P284D-N287P-S322T-N388M-R422F-C430N-L432F-L434W-S436N-H461T-dG462 (protein)
chain: B1 chain with R422F, A461T, T463A
B27: I283T-P284D-N287P-S322T-N388M-C430N-L432F-L434W-S436N-H461Y-dG462-A463T-S465V (protein)
chain: B1 chain with A461Y, S465V
B28: I283T-P284D-N287P-S322T-N388M-E421V-R422F-C430N-L432F-L434W-S436N-dG462-A463T (protein)
chain: B1 chain with E421V, R422F, A461H
B29: I283T-P284D-N287P-S322T-N388M-E421V-R422F-C430N-L432F-L434W-S436N-H461V-dG462 (protein)
chain: B1 chain with E421V, R422F, A461V, T463A
B30: I283T-P284D-N287P-S322T-N388M-C430N-L432F-L434W-S436N-H461V-dG462-A463T-S465V (protein)
chain: B1 chain with A461V, S465V
B31: I283T-P284D-N287P-S322T-N388M-C430N-L432F-L434W-S436N-H461A-dG462-S465I (protein)
chain: B1 chain with T463A, S465I
B32: I283T-P284D-N287P-S322T-N388M-E421V-C430N-L432F-L434W-S436N-H461T-dG462-A463T (protein)
chain: B1 chain with E421V, A461T
B33: N285M-N388M-K394R-C430N-L432F-L434W-S436N (protein)
chain: B1 chain with T283I, D284P, N285M, P287N, T322S, K394R, A461H, T463A
B34: I283T-N285P-N287T-Q290E-S322T-N388M-K394R-C430A-L432F-L434W-S436N-dH461 (protein)
chain: B1 chain with D284P, N285P, P287T, Q290E, K394R, N430A, A461H, T463A

System: 3-methylcrotonic acid
Format: biochemical, Yersinia frederiksenii
Design: key: “+” representing a low increase in activity; “++++” representing a high increase in activity

Row | Molecule | Activity relative to WT
1 | B1 | ++++
2 | B2 | ++++
3 | B3 | ++++
4 | B4 | ++++
5 | B5 | ++++
6 | B6 | ++++
7 | B7 | ++++
8 | B8 | ++++
9 | B9 | ++++
10 | B10 | ++++
11 | B11 | ++++
12 | B12 | ++++
13 | B13 | ++++
14 | B14 | ++++
15 | B15 | +
16 | B16 | +
17 | B17 | ++++

Row | Molecule | Activity relative to WT
18 | B18 | ++++
19 | B19 | ++++
20 | B20 | ++++
21 | B21 | ++++
22 | B22 | ++++
23 | B23 | ++++
24 | B24 | ++++
25 | B25 | ++++
26 | B26 | ++++
27 | B27 | ++++
28 | B28 | ++++
29 | B29 | ++++
30 | B30 | ++++
31 | B31 | ++++
32 | B32 | ++++
33 | B33 | +
34 | B34 | ++++
